Among the data in patent US20250066503A1, “CELL INJURY INDUCING THERAPEUTIC DRUG FOR USE IN CANCER THERAPY” (CHUGAI SEIYAKU KABUSHIKI KAISHA, priority 2016, published 2025) are Kd values, retold here.

The target in this assay is T1, soluble human CD3 epsilon chain (human, UniProt P07766 23-126).
T1 construct: also called CD3ε
The assay can be described thus: SPR.

T1 sequence (P07766 23-126 limits assumed): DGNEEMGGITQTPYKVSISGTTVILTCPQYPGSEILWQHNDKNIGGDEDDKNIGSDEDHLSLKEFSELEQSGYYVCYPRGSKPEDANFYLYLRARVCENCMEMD

B1: TR01H040-E22Hh/none-Hi-Kn010G3/L0234-k0 (antibody, V domains shown)
VH: QVQLVESGGGLVQPGRSLRLSCAASGFTFSNAWMHWVRQAPGKGLEWVAQIKDKSQNYATYYAESVKGRFTISRADSKNSIYLQMNSLKTEDTAVYYCRYVHYSASYGVDAWGQGTTVTVSS
VL: DIVMTQSPLSLPVTPGEPASISCRSSQEPVHSNRNTYLHWYQQKPGQAPRLLIYKVSNRFRGVPDRFSGSGSGTDFTLKISRVEAEDVGVYYCGQGTQVPYTFGQGTKLEIK
notes: one-arm
Broadly, the Kd is a measure of binding affinity in units of concentration. A high value points to weaker binding. Molecule B1 returned a Kd of 24 nM.

B2: TR01H040-E22Hh/none-Hi-Kn010G3/L0240-k0 (antibody, V domains shown)
VH: QVQLVESGGGLVQPGRSLRLSCAASGFTFSNAWMHWVRQAPGKGLEWVAQIKDKSQNYATYYAESVKGRFTISRADSKNSIYLQMNSLKTEDTAVYYCRYVHYSASYGVDAWGQGTTVTVSS
VL: DIVMTQSPLSLPVTPGEPASISCRSSESPVHSNRNTYLHWYQQKPGQAPRLLIYKVSNRFSGVPDRFSGSGSGTDFTLKISRVEAEDVGVYYCYQGTQVPYTFGQGTKLEIK
notes: one-arm
B2: the Kd worked out at 2.17 nM.

B3: TR01H040-E22Hh/none-Hi-Kn010G3/TR01L016-k0 (antibody, V domains shown)
VH: QVQLVESGGGLVQPGRSLRLSCAASGFTFSNAWMHWVRQAPGKGLEWVAQIKDKSQNYATYYAESVKGRFTISRADSKNSIYLQMNSLKTEDTAVYYCRYVHYSASYGVDAWGQGTTVTVSS
VL: DIVMTQSPLSLPVTPGEPASISCRSSQSPVHSNRNTYLHWYLQKPGQSPQLLIYKVSNRFSGVPDRFSGSGSGTDFTLKISRVEAEDVGVYYCYQGTQVPYTFGQGTKLEIK
notes: one-arm
B3: binding was characterised by a dissociation constant (Kd) of 2.52 nM.

B4: TR01H040-E22Hh/none-Hi-Kn010G3/L0246-k0 (antibody, V domains shown)
VH: QVQLVESGGGLVQPGRSLRLSCAASGFTFSNAWMHWVRQAPGKGLEWVAQIKDKSQNYATYYAESVKGRFTISRADSKNSIYLQMNSLKTEDTAVYYCRYVHYSASYGVDAWGQGTTVTVSS
VL: DIVMTQSPLSLPVTPGEPASISCRSSQSPVHSNRNTYIQWYQQKPGQAPRLLIYKVSNRFSGVPDRFSGSGSGTDFTLKISRVEAEDVGVYYCSQGTQVPYTFGQGTKLEIK
notes: one-arm
The molecule B4 returned a dissociation constant (Kd) of 92.8 nM.

B5: TR01H040-E22Hh/none-Hi-Kn010G3/L0236-k0 (antibody, V domains shown)
VH: QVQLVESGGGLVQPGRSLRLSCAASGFTFSNAWMHWVRQAPGKGLEWVAQIKDKSQNYATYYAESVKGRFTISRADSKNSIYLQMNSLKTEDTAVYYCRYVHYSASYGVDAWGQGTTVTVSS
VL: DIVMTQSPLSLPVTPGEPASISCRSSQEPVHSNRNTYLHWYQQKPGQAPRLLIYKVSNRFWGVPDRFSGSGSGTDFTLKISRVEAEDVGVYYCYQGTQVPYTFGQGTKLEIK
notes: one-arm
B5 displayed a Kd of 5.64 nM.

B6: TR01H040-E22Hh/none-Hi-Kn010G3/L0241-k0 (antibody, V domains shown)
VH: QVQLVESGGGLVQPGRSLRLSCAASGFTFSNAWMHWVRQAPGKGLEWVAQIKDKSQNYATYYAESVKGRFTISRADSKNSIYLQMNSLKTEDTAVYYCRYVHYSASYGVDAWGQGTTVTVSS
VL: DIVMTQSPLSLPVTPGEPASISCRSSESPVHSNRNTYLHWYQQKPGQAPRLLIYKVSNRFWGVPDRFSGSGSGTDFTLKISRVEAEDVGVYYCYQGTQVPYTFGQGTKLEIK
notes: one-arm
With B6, binding was put at a Kd of 3.48 nM.

B7: TR01H040-E22Hh/none-Hi-Kn010G3/TR01L015-k0 (antibody, V domains shown)
VH: QVQLVESGGGLVQPGRSLRLSCAASGFTFSNAWMHWVRQAPGKGLEWVAQIKDKSQNYATYYAESVKGRFTISRADSKNSIYLQMNSLKTEDTAVYYCRYVHYSASYGVDAWGQGTTVTVSS
VL: DIVMTQSPLSLPVTPGEPASISCRSSQSPVHSNRNTYLHWYLQKPGQSPQLLIYKVSNRFSGVPDRFSGSGSGTDFTLKISRVEAEDVGVYYCGQGTQVPYTFGQGTKLEIK
notes: one-arm
Turning to B7, the Kd came to 39.5 nM.

B8: TR01H040-E22Hh/none-Hi-Kn010G3/L0237-k0 (antibody, V domains shown)
VH: QVQLVESGGGLVQPGRSLRLSCAASGFTFSNAWMHWVRQAPGKGLEWVAQIKDKSQNYATYYAESVKGRFTISRADSKNSIYLQMNSLKTEDTAVYYCRYVHYSASYGVDAWGQGTTVTVSS
VL: DIVMTQSPLSLPVTPGEPASISCRSSQEPVHSNRNTYIHWYQQKPGQAPRLLIYKVSNRFSGVPDRFSGSGSGTDFTLKISRVEAEDVGVYYCYQGTQVPYTFGQGTKLEIK
notes: one-arm
As for B8, the Kd is 10.2 nM.

B9: TR01H040-E22Hh/none-Hi-Kn010G3/L0247-k0 (antibody, V domains shown)
VH: QVQLVESGGGLVQPGRSLRLSCAASGFTFSNAWMHWVRQAPGKGLEWVAQIKDKSQNYATYYAESVKGRFTISRADSKNSIYLQMNSLKTEDTAVYYCRYVHYSASYGVDAWGQGTTVTVSS
VL: DIVMTQSPLSLPVTPGEPASISCRSSQSPVHSNRNTYIQWYQQKPGQAPRLLIYKVSNRFSGVPDRFSGSGSGTDFTLKISRVEAEDVGVYYCIQGTQVPYTFGQGTKLEIK
notes: one-arm
In the case of B9, the Kd is 100 nM.

B10: TR01H040-E22Hh/none-Hi-Kn010G3/L0235-k0 (antibody, V domains shown)
VH: QVQLVESGGGLVQPGRSLRLSCAASGFTFSNAWMHWVRQAPGKGLEWVAQIKDKSQNYATYYAESVKGRFTISRADSKNSIYLQMNSLKTEDTAVYYCRYVHYSASYGVDAWGQGTTVTVSS
VL: DIVMTQSPLSLPVTPGEPASISCRSSQEPVHSNRNTYLHWYQQKPGQAPRLLIYKVSNRFSGVPDRFSGSGSGTDFTLKISRVEAEDVGVYYCYQGTQVPYTFGQGTKLEIK
notes: one-arm
The molecule B10 registered a Kd of 2.81 nM.

B11: TR01H040-E22Hh/none-Hi-Kn010G3/L0243-k0 (antibody, V domains shown)
VH: QVQLVESGGGLVQPGRSLRLSCAASGFTFSNAWMHWVRQAPGKGLEWVAQIKDKSQNYATYYAESVKGRFTISRADSKNSIYLQMNSLKTEDTAVYYCRYVHYSASYGVDAWGQGTTVTVSS
VL: DIVMTQSPLSLPVTPGEPASISCRSSEPPVHSNRNTYLHWYQQKPGQAPRLLIYKVSNRFRGVPDRFSGSGSGTDFTLKISRVEAEDVGVYYCGQGTQVPYTFGQGTKLEIK
notes: one-arm
B11 showed a Kd of 24.6 nM.

B12: TR01H040-E22Hh/none-Hi-Kn010G3/L0238-k0 (antibody, V domains shown)
VH: QVQLVESGGGLVQPGRSLRLSCAASGFTFSNAWMHWVRQAPGKGLEWVAQIKDKSQNYATYYAESVKGRFTISRADSKNSIYLQMNSLKTEDTAVYYCRYVHYSASYGVDAWGQGTTVTVSS
VL: DIVMTQSPLSLPVTPGEPASISCRSSEPPVHSNRNTYLHWYQQKPGQAPRLLIYKVSNRFSGVPDRFSGSGSGTDFTLKISRVEAEDVGVYYCYQGTQVPYTFGQGTKLEIK
notes: one-arm
Regarding B12, the equilibrium dissociation constant (Kd) turned out to be 2.91 nM.

B13: TR01H040-E22Hh/none-Hi-Kn010G3/TR01L010-k0 (antibody, V domains shown)
VH: QVQLVESGGGLVQPGRSLRLSCAASGFTFSNAWMHWVRQAPGKGLEWVAQIKDKSQNYATYYAESVKGRFTISRADSKNSIYLQMNSLKTEDTAVYYCRYVHYSASYGVDAWGQGTTVTVSS
VL: DIVMTQSPLSLPVTPGEPASISCRSSQSLVHSNRNTYLHWYQQKPGQAPRLLIYKVSNRFRGVPDRFSGSGSGTDFTLKISRVEAEDVGVYYCGQGTQVPYTFGQGTKVEIE
notes: one-arm
B13 displayed a Kd of 32.8 nM.

B14: TR01H040-E22Hh/none-Hi-Kn010G3/L0249-k0 (antibody, V domains shown)
VH: QVQLVESGGGLVQPGRSLRLSCAASGFTFSNAWMHWVRQAPGKGLEWVAQIKDKSQNYATYYAESVKGRFTISRADSKNSIYLQMNSLKTEDTAVYYCRYVHYSASYGVDAWGQGTTVTVSS
VL: DIVMTQSPLSLPVTPGEPASISCRPSQSPVHSNRNTYIQWYQQKPGQAPRLLIYKVSNRFSGVPDRFSGSGSGTDFTLKISRVEAEDVGVYYCSQGTQVPYTFGQGTKLEIK
notes: one-arm
B14 showed a Kd of 111 nM.

B15: TR01H040-E22Hh/none-Hi-Kn010G3/L0242-k0 (antibody, V domains shown)
VH: QVQLVESGGGLVQPGRSLRLSCAASGFTFSNAWMHWVRQAPGKGLEWVAQIKDKSQNYATYYAESVKGRFTISRADSKNSIYLQMNSLKTEDTAVYYCRYVHYSASYGVDAWGQGTTVTVSS
VL: DIVMTQSPLSLPVTPGEPASISCRSSESPVHSNRNTYIHWYQQKPGQAPRLLIYKVSNRFSGVPDRFSGSGSGTDFTLKISRVEAEDVGVYYCYQGTQVPYTFGQGTKLEIK
notes: one-arm
Regarding B15, the Kd worked out at 3.58 nM.

B16: TR01H040-E22Hh/none-Hi-Kn010G3/L0239-k0 (antibody, V domains shown)
VH: QVQLVESGGGLVQPGRSLRLSCAASGFTFSNAWMHWVRQAPGKGLEWVAQIKDKSQNYATYYAESVKGRFTISRADSKNSIYLQMNSLKTEDTAVYYCRYVHYSASYGVDAWGQGTTVTVSS
VL: DIVMTQSPLSLPVTPGEPASISCRSSESPVHSNRNTYLHWYQQKPGQAPRLLIYKVSNRFRGVPDRFSGSGSGTDFTLKISRVEAEDVGVYYCGQGTQVPYTFGQGTKLEIK
notes: one-arm
Consider B16, for which binding was characterised by a dissociation constant (Kd) of 23.1 nM.

B17: TR01H040-E22Hh/none-Hi-Kn010G3/L0250-k0 (antibody, V domains shown)
VH: QVQLVESGGGLVQPGRSLRLSCAASGFTFSNAWMHWVRQAPGKGLEWVAQIKDKSQNYATYYAESVKGRFTISRADSKNSIYLQMNSLKTEDTAVYYCRYVHYSASYGVDAWGQGTTVTVSS
VL: DIVMTQSPLSLPVTPGEPASISCRPSQSPVHSNRNTYIQWYQQKPGQAPRLLIYKVSNRFSGVPDRFSGSGSGTDFTLKISRVEAEDVGVYYCIQGTQVPYTFGQGTKLEIK
notes: one-arm
With B17, the Kd was 21.5 nM.

B18: TR01H040-E22Hh/none-Hi-Kn010G3/TR01L008-k0 (antibody, V domains shown)
VH: QVQLVESGGGLVQPGRSLRLSCAASGFTFSNAWMHWVRQAPGKGLEWVAQIKDKSQNYATYYAESVKGRFTISRADSKNSIYLQMNSLKTEDTAVYYCRYVHYSASYGVDAWGQGTTVTVSS
VL: DIVMTQSPLSLPVTPGEPASISCQASESLVHSNRNTYLHWYQQKPGQAPRLLIYKVSNRFRGVPDRFSGSGSGTDFTLKISRVEAEDVGVYYCGQGTQVPYTFGQGTKLEIK
notes: one-arm
In the case of B18, the Kd was determined as 29.3 nM.

B19: TR01H040-E22Hh/none-Hi-Kn010G3/L0248-k0 (antibody, V domains shown)
VH: QVQLVESGGGLVQPGRSLRLSCAASGFTFSNAWMHWVRQAPGKGLEWVAQIKDKSQNYATYYAESVKGRFTISRADSKNSIYLQMNSLKTEDTAVYYCRYVHYSASYGVDAWGQGTTVTVSS
VL: DIVMTQSPLSLPVTPGEPASISCRPSQSPVHSNRNTYIQWYQQKPGQAPRLLIYKVSNRFSGVPDRFSGSGSGTDFTLKISRVEAEDVGVYYCYQGTQVPYTFGQGTKLEIK
notes: one-arm
As to B19, binding was put at a Kd of 78.9 nM.

B20: TR01H040-E22Hh/none-Hi-Kn010G3/L0262-k0 (antibody, V domains shown)
VH: QVQLVESGGGLVQPGRSLRLSCAASGFTFSNAWMHWVRQAPGKGLEWVAQIKDKSQNYATYYAESVKGRFTISRADSKNSIYLQMNSLKTEDTAVYYCRYVHYSASYGVDAWGQGTTVTVSS
VL: DIVMTQSPLSLPVTPGEPASISCRSSQPPVHSNRNTYLHWYQQKPGQAPRLLIYKVSNRFSGVPDRFSGSGSGTDFTLKISRVEAEDVGVYYCAQGTQVPYTFGQGTKLEIK
notes: one-arm
Molecule B20 returned a Kd of 18.1 nM.

B21: TR01H040-E22Hh/none-Hi-Kn010G3/TR01L009-k0 (antibody, V domains shown)
VH: QVQLVESGGGLVQPGRSLRLSCAASGFTFSNAWMHWVRQAPGKGLEWVAQIKDKSQNYATYYAESVKGRFTISRADSKNSIYLQMNSLKTEDTAVYYCRYVHYSASYGVDAWGQGTTVTVSS
VL: DIVMTQSPLSLPVTPGEPASISCRSSQSLVHSNRNTYLHWYLQKPGQSPQLLIYKVSNRFRGVPDRFSGSGSGTDFTLKISRVEAEDVGVYYCGQGTQVPYTFGQGTKLEIK
notes: one-arm
Take B21: the Kd was 35.6 nM.
